Assays:
[1] = molecular target: c-Myc–HMPV P, in vitro translated, unlabelled (human metapneumovirus strain TN/96-12); experiment: co-IP
[2] = molecular target: c-Myc–HMPV N, in vitro translated, unlabelled (human metapneumovirus strain TN/96-12); experiment: co-IP

Substance	percent co-immunoprecipitated [1] [%]	percent co-immunoprecipitated [2] [%]
Radiolabelled native HMPV N, in vitro translated (natural protein)	< 1	
Radiolabelled native HMPV P, in vitro translated (natural protein)		< 1

Source: publication PMC2876975
